Results from patent US20160326228A1 (ACCELERON PHARMA, published 2016).

T1: Activin A (UniProt P08476 311-426)
T1 construct: also called ActA
T1 sequence (looked up): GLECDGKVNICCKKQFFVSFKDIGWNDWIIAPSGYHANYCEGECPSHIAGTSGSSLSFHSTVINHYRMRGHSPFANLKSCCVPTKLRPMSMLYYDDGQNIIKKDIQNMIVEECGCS

T2: Activin B (UniProt P09529 293-407)
T2 sequence (looked up): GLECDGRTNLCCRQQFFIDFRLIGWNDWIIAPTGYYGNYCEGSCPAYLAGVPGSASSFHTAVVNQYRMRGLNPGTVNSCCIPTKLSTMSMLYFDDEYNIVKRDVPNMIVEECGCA

B1: Soluble ActRIIB-Fc +15tail (Fc fusion, UniProt Q13705 19-134, looked up)
chain: SGRGEAETRECIYYNANWELERTNQSGLERCEGEQDKRLHCYASWANSSGTIELVKKGCWLDDFNCYDRQECVATEENPQVYFCCCEGNFCNERFTHLPEAGGPEVTYEPPPTAPT
notes: whole entry named; not shown: linker (if any) and Fc
B2: Soluble ActRIIB-Fc WT (64R) (Fc fusion)
chain: GRGEAETRECIYYNANWELERTNQSGLERCEGEQDKRLHCYASWRNSSGTIELVKKGCWLDDFNCYDRQECVATEENPQVYFCCCEGNFCNERFTHLPEA
notes: as for B1
B3: ActRIIB(20-134)-hFc (Fc fusion)
chain: GRGEAETRECIYYNANWELERTNQSGLERCEGEQDKRLHCYASWRNSSGTIELVKKGCWLDDFNCYDRQECVATEENPQVYFCCCEGNFCNERFTHLPEAGGPEVTYEPPPTAPT
notes: not shown: linker (if any) and human Fc (hFc)
B4: Growth and Differentiation Factor-11 (GDF11) (ligand, UniProt O95390 299-407, looked up)
chain: NLGLDCDEHSSESRCCRYPLTVDFEAFGWDWIIAPKRYKANYCSGQCEYMFMQKYPHTHLVQQANPRGSAGPCCTPTKMSPINMLYFNDKQQIIYGKIPGMVVDRCGCS
notes: also called BMP11

What was measured:
Activin A [1] = target: T1, Activin A; assay: BiaCore; ligand coupled, receptor flowed over; ligand coupled to the device, receptor flowed over (data from WO2006/012627)
[2] = target: B4; assay: BiaCore; ligand coupled, receptor flowed over; WT (64R) construct; ligand coupled to the device, receptor flowed over (data from WO2006/012627)
Activin B = target: T2, Activin B; assay: Biacore; steady-state affinity fit
Description: (§1) The affinity of GDF Traps and other ActRIIB-hFc proteins for several ligands was evaluated in vitro with a BiacoreTM instrument. Kd values were obtained by steady-state affinity fit due to the very rapid association and dissociation of the complex, which prevented accurate determination of kₒₙ and koff.

Activin A [3] = target: T1, Activin A; assay: Biacore; steady-state affinity fit
Description: as §1

[4] = target: B4; assay: cell-based or functional assay
Activin A [5] = target: T1, Activin A; assay: cell-based or functional assay
Activin A [6] = target: T1, Activin A; assay: BiaCore; receptor-Fc captured by anti-hFc antibody, ligand injected
Description: (§2) Binding of certain ActRIIB-Fc proteins and GDF Traps to ligands was tested in a BiaCore™ assay.
(§3) The ActRIIB-Fc variants or wild-type protein were captured onto the system using an anti-hFc antibody. Ligands were injected and flowed over the captured receptor proteins.

ActRIIB(20-134)-hFc [7] = target: B3; assay: Biacore; steady-state affinity fit
Description: as §1

ActRIIB(20-134)-hFc [8] = target: B3; assay: BiaCore; receptor-Fc captured by anti-hFc antibody, ligand injected
Description: as §2, §3

[9] = target: B1; assay: BiaCore; ligand coupled, receptor flowed over; +15tail construct; ligand coupled to the device, receptor flowed over (data from WO2006/012627)

Binder: B1
- Kd (Activin A [1]): ~26 nM

Binder: B2
- Kd [2]: 86 nM

Binder: B3
- Kd (Activin B): 0.012 nM
- Kd (Activin A [3]): 0.016 nM
- IC50 (ng/mL), A-204 reporter gene assay, conditioned media [4]: 45 ng/mL
- IC50 (ng/mL), A-204 reporter gene assay, conditioned media (Activin A [5]): 22 ng/mL
- Kd (Activin A [6]): 0.0268 nM
- koff (Activin A [6]): 0.000159 s⁻¹
- kon (Activin A [6]): 5.94e+06 M⁻¹ s⁻¹

Binder: B4
- Kd (ActRIIB(20-134)-hFc [7]): 0.036 nM
- Kd (ActRIIB(20-134)-hFc [8]): 0.0842 nM
- koff (ActRIIB(20-134)-hFc [8]): 0.000113 s⁻¹
- kon (ActRIIB(20-134)-hFc [8]): 1.34e+06 M⁻¹ s⁻¹
- Kd [9]: 19 nM
